Measurements: patent US20240360194A1, “New Peptides as Potent and Selective GIP Receptor Agonists” (Sanofi, priority 2021, published 2024)
In brackets after ≈: the same amount, converted by molar mass. Like-named read-outs stand apart in the source and are kept apart here. Numbered stars: 1 amine (or outer) side, 2 acyl side, 3 side chain; on linkers, the order of the positions; unused ones are H or OH. Square brackets hold non-standard residues; d marks the D form. Side chains are listed from the residue outwards. Ends that are not written are not given here. * marks the point of attachment. C18 diacid = O=C(O)CCCCCCCCCCCCCCCCC(=O)*; γGlu = O=C(O)[C@H](CCC(=O)[*:2])N[*:1]; AEEA = NCCOCCOCC(=O)O; Aib = CC(C)(N)C(=O)O

B1: SEQ ID NO: 21 (peptide)
peptide: Y[Aib]EGTFISDLSI[Aib]K([AEEA-AEEA-γGlu-C18 diacid])ERIHQ[Aib]EFIEWLLAQGPSSGAPPPS-NH2
modifications: N-terminus assumed
SMILES: CC[C@H](C)[C@H](NC(=O)[C@H](CCCNC(=N)N)NC(=O)[C@H](CCC(=O)O)NC(=O)[C@H](CCCCNC(=O)COCCOCCNC(=O)COCCOCCNC(=O)CC[C@H](NC(=O)CCCCCCCCCCCCCCCCC(=O)O)C(=O)O)NC(=O)C(C)(C)NC(=O)[C@@H](NC(=O)[C@H](CO)NC(=O)[C@H](CC(C)C)NC(=O)[C@H](CC(=O)O)NC(=O)[C@H](CO)NC(=O)[C@@H](NC(=O)[C@H](Cc1ccccc1)NC(=O)[C@@H](NC(=O)CNC(=O)[C@H](CCC(=O)O)NC(=O)C(C)(C)NC(=O)[C@@H](N)Cc1ccc(O)cc1)[C@@H](C)O)[C@@H](C)CC)[C@@H](C)CC)C(=O)N[C@@H](Cc1c[nH]cn1)C(=O)N[C@@H](CCC(N)=O)C(=O)NC(C)(C)C(=O)N[C@@H](CCC(=O)O)C(=O)N[C@@H](Cc1ccccc1)C(=O)N[C@H](C(=O)N[C@@H](CCC(=O)O)C(=O)N[C@@H](Cc1c[nH]c2ccccc12)C(=O)N[C@@H](CC(C)C)C(=O)N[C@@H](CC(C)C)C(=O)N[C@@H](C)C(=O)N[C@@H](CCC(N)=O)C(=O)NCC(=O)N1CCC[C@H]1C(=O)N[C@@H](CO)C(=O)N[C@@H](CO)C(=O)NCC(=O)N[C@@H](C)C(=O)N1CCC[C@H]1C(=O)N1CCC[C@H]1C(=O)N1CCC[C@H]1C(=O)N[C@@H](CO)C(N)=O)[C@@H](C)CC
notes: Synthetic peptide, 39 residues
B2: SEQ ID NO: 29 (peptide)
peptide: Y[Aib]EGTFISDLSI[Aib]K([AEEA-AEEA-γGlu-C18 diacid])DRIHQ[Aib]EFIEWLLAQEPSSGAPPPS-NH2
modifications: N-terminus assumed
SMILES: CC[C@H](C)[C@H](NC(=O)[C@H](CCCNC(=N)N)NC(=O)[C@H](CC(=O)O)NC(=O)[C@H](CCCCNC(=O)COCCOCCNC(=O)COCCOCCNC(=O)CC[C@H](NC(=O)CCCCCCCCCCCCCCCCC(=O)O)C(=O)O)NC(=O)C(C)(C)NC(=O)[C@@H](NC(=O)[C@H](CO)NC(=O)[C@H](CC(C)C)NC(=O)[C@H](CC(=O)O)NC(=O)[C@H](CO)NC(=O)[C@@H](NC(=O)[C@H](Cc1ccccc1)NC(=O)[C@@H](NC(=O)CNC(=O)[C@H](CCC(=O)O)NC(=O)C(C)(C)NC(=O)[C@@H](N)Cc1ccc(O)cc1)[C@@H](C)O)[C@@H](C)CC)[C@@H](C)CC)C(=O)N[C@@H](Cc1c[nH]cn1)C(=O)N[C@@H](CCC(N)=O)C(=O)NC(C)(C)C(=O)N[C@@H](CCC(=O)O)C(=O)N[C@@H](Cc1ccccc1)C(=O)N[C@H](C(=O)N[C@@H](CCC(=O)O)C(=O)N[C@@H](Cc1c[nH]c2ccccc12)C(=O)N[C@@H](CC(C)C)C(=O)N[C@@H](CC(C)C)C(=O)N[C@@H](C)C(=O)N[C@@H](CCC(N)=O)C(=O)N[C@@H](CCC(=O)O)C(=O)N1CCC[C@H]1C(=O)N[C@@H](CO)C(=O)N[C@@H](CO)C(=O)NCC(=O)N[C@@H](C)C(=O)N1CCC[C@H]1C(=O)N1CCC[C@H]1C(=O)N1CCC[C@H]1C(=O)N[C@@H](CO)C(N)=O)[C@@H](C)CC
notes: Synthetic peptide, 39 residues (Glu at 30)
B3: SEQ ID NO: 27 (peptide)
peptide: Y[Aib]EGTFISDLSI[Aib]K([AEEA-AEEA-γGlu-C18 diacid])DRIHQEEFIEWLLAQEPSSGAPPPS-NH2
modifications: N-terminus assumed
SMILES: CC[C@H](C)[C@H](NC(=O)[C@H](Cc1ccccc1)NC(=O)[C@H](CCC(=O)O)NC(=O)[C@H](CCC(=O)O)NC(=O)[C@H](CCC(N)=O)NC(=O)[C@H](Cc1c[nH]cn1)NC(=O)[C@@H](NC(=O)[C@H](CCCNC(=N)N)NC(=O)[C@H](CC(=O)O)NC(=O)[C@H](CCCCNC(=O)COCCOCCNC(=O)COCCOCCNC(=O)CC[C@H](NC(=O)CCCCCCCCCCCCCCCCC(=O)O)C(=O)O)NC(=O)C(C)(C)NC(=O)[C@@H](NC(=O)[C@H](CO)NC(=O)[C@H](CC(C)C)NC(=O)[C@H](CC(=O)O)NC(=O)[C@H](CO)NC(=O)[C@@H](NC(=O)[C@H](Cc1ccccc1)NC(=O)[C@@H](NC(=O)CNC(=O)[C@H](CCC(=O)O)NC(=O)C(C)(C)NC(=O)[C@@H](N)Cc1ccc(O)cc1)[C@@H](C)O)[C@@H](C)CC)[C@@H](C)CC)[C@@H](C)CC)C(=O)N[C@@H](CCC(=O)O)C(=O)N[C@@H](Cc1c[nH]c2ccccc12)C(=O)N[C@@H](CC(C)C)C(=O)N[C@@H](CC(C)C)C(=O)N[C@@H](C)C(=O)N[C@@H](CCC(N)=O)C(=O)N[C@@H](CCC(=O)O)C(=O)N1CCC[C@H]1C(=O)N[C@@H](CO)C(=O)N[C@@H](CO)C(=O)NCC(=O)N[C@@H](C)C(=O)N1CCC[C@H]1C(=O)N1CCC[C@H]1C(=O)N1CCC[C@H]1C(=O)N[C@@H](CO)C(N)=O
notes: as for B2

Assays:
[1] = target: T1, human GLP-1 receptor (hGLP-1R) (Homo sapiens, UniProt P43220); experiment: Binding assay, displacement of [125I]GLP-1 from HEK-293 membranes over-expressing GLP-1R (SPA); conditions: [125I]GLP-1 displacement
T1 sequence (P43220 24-463): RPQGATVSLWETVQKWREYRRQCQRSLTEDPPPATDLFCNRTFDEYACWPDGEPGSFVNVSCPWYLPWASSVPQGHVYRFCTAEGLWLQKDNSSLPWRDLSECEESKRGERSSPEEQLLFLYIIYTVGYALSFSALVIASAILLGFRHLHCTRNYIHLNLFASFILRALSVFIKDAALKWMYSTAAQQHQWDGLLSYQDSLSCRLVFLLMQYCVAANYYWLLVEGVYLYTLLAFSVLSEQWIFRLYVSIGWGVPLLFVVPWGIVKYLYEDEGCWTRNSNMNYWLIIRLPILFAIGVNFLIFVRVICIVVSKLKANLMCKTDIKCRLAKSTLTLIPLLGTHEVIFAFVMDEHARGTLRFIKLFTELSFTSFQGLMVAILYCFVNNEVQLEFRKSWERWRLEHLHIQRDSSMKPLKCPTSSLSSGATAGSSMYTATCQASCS
Procedure: (1) Preparation of Membranes from HEK-293 Cells Over-Expressing GIPR or GLP-1R
HEK-293 cells recombinantly over-expressing GIPR or GLP-1R were grown to 50% confluency, washed with warm 1×PBS (Gibco) and detached in HEPES/EDTA-buffer (100 mM HEPES pH 7.5, 5 mM EDTA). Cells were harvested by centrifugation at 4° C. and 3000×g and the pellets were stored at −80° C. until further processing.
After thawing on ice, pellets were resuspended in HEPES/EDTA-buffer and homogenized on ice for 1 min using Ultra-Turray T25. After subsequent sonification the cell debris was removed by centrifugation at 1000×g and 4° C. Supernatants were then ultra-centrifuged at 100000×g and 4° C. under vacuum for 30 min. Pellets were resuspended in HEPES/EDTA/NaCl-buffer (20 mM HEPES, 1 mM EDTA, 150 mM NaCl; add 1 Complete Mini Protease inhibitor cocktail to 10 ml buffer) and protein content was determined via BCA-Protein assay.
(2) Measurement of Binding Activity of Test Compounds to Human GIPR or GLP-1R

[2] = target: T2, human GIP receptor (hGIPR) (Homo sapiens, UniProt P48546); experiment: Binding assay, displacement of [125I]GIP from HEK-293 membranes over-expressing GIPR (SPA); conditions: [125I]GIP displacement
T2 sequence (P48546 22-466): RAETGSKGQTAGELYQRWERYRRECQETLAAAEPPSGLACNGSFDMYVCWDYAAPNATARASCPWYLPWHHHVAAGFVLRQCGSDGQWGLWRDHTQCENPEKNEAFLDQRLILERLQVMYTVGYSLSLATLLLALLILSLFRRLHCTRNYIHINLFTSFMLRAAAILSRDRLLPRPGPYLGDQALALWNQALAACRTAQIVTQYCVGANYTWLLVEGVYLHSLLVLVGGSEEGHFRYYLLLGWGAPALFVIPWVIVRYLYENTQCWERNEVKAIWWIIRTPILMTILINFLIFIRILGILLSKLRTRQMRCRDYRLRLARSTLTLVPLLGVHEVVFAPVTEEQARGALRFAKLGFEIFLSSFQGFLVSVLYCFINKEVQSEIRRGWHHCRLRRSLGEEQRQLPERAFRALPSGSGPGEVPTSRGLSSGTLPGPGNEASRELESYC
How it was run: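 Membranes from HEK-293 cells over-expressing human GIPR or GLP-1R, isolated by homogenising, sonicating and ultracentrifuging at 100000×g into HEPES/EDTA/NaCl buffer with protease inhibitors, were used for binding.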

[3] = target: T2, human GIP receptor (hGIPR); experiment: In vitro cellular cAMP assay for GIP receptor efficacy (HEK-293 cell line over-expressing receptor); assay type: cell-based; conditions: EC50 hGIPR 0.1% BSA, HEK-293, 0.1% BSA
[4] = Solubility assessment (UHPLC-UV of supernatant, target 10 mg/ml); assay type: physicochemical; conditions: read-out: Soluble amount
How it was run: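 Peptides at 10 mg/ml (purity-corrected) in 100 mM phosphate pH 7.4, optionally with 2.7 mg/ml m-cresol; gentle agitation 1 h, then 5° C. overnight (24 h). Supernatant after 15 min centrifugation at 2500 RCF quantified by UHPLC-UV, with sequence-based extinction coefficients.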

human GIP receptor [5] = target: T3, human GIP receptor (Homo sapiens, UniProt P48546); experiment: In vitro cellular cAMP assay for GIP receptor efficacy (human adipocytes); assay type: cell-based
T3 construct: human adipocytes endogenously expressing the human GIP receptor; host or cells: human preadipocytes (Lonza) differentiated to adipocytes
T3 sequence (P48546 22-466): T2 sequence (P48546 22-466)
How it was run: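 Human preadipocytes expanded, then differentiated 6 days (insulin, dexamethasone, PPARγ agonist, 200 μM IBMX, L-thyroxine) before plating at 5000 cells/well. Test compound applied 30 min at room temperature; cAMP measured by HTRF after 1 h with lysis-buffer reagents, read as 665/620 nm fluorescence ratio.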

[6] = target: T1, human GLP-1 receptor (hGLP-1R); experiment: In vitro cellular cAMP assay for GLP-1 receptor efficacy (HEK-293 cell line over-expressing receptor); assay type: cell-based; conditions: HEK-293, 0.1% BSA
human GIP receptor [7] = target: T4, human GIP receptor (human, UniProt P48546 22-466); experiment: cell-based or functional assay
T4 sequence (looked up): T2 sequence (P48546 22-466)

human GLP-1 receptor [8] = target: T5, human GLP-1 receptor (human, UniProt P43220 24-463); experiment: cell-based or functional assay
human GIP receptor [9] = target: T4, human GIP receptor; experiment: cell-based or functional assay; remark: listed apart in the source
human GLP-1 receptor [10] = target: T5, human GLP-1 receptor; experiment: displacement of [125I]GLP-1 from HEK-293 membranes expressing hGLP-1R (SPA beads)

Molecule	IC50 [1] [nM]	IC50 [2] [nM]	EC50 [3] [nM]	solubility at 24 h ([4]; 100 mM phosphate buffer pH 7.4 (solubility buffer system A), pH 7.4, Solubility buffer system A: 100 mM phosphate buffer pH 7.4) [µg/mL]	solubility at 24 h ([4]; pH 7.4, Solubility buffer system C: 100 mM phosphate buffer pH 7.4, 2.7 mg/ml m-cresol) [µg/mL]	EC50 (human GIP receptor [5]; read-out: hGIPR EC50) [nM]	Emax (human GIP receptor [5]; read-out: hGIPR Emax) [%]	EC50 [6] [nM]	EC50 hGIPR 0% HSA (cAMP, HEK-293) (human GIP receptor [7]) [nM]	EC50 hGIPR 0.1% BSA (cAMP, HEK-293) (human GIP receptor [7]) [nM]	EC50 hGLP-1R 0.1% BSA (cAMP, HEK-293) (human GLP-1 receptor [8]) [nM]	hGIPR EC50 (cAMP, human adipocytes) (human GIP receptor [9]) [nM]	hGIPR Emax (cAMP, human adipocytes) (human GIP receptor [9]) [%]	IC50 (human GLP-1 receptor [10]) [nM]
CC[C@H](C)[C@H](NC(=O)[C@H](CCCNC(=N)N)NC(=O)[C@H](CC(=O)O)NC(=O)[C@H](CCCCNC(=O)CN(C)C(=O)CN(C)C(=O)CN(C)C(=O)CC[C@H](NC(=O)CCCCCCCCCCCCCCCCC(=O)O)C(=O)O)NC(=O)C(C)(C)NC(=O)[C@@H](NC(=O)[C@H](CO)NC(=O)[C@H](CC(C)C)NC(=O)[C@H](CC(=O)O)NC(=O)[C@H](CO)NC(=O)[C@@H](NC(=O)[C@H](Cc1ccccc1)NC(=O)[C@@H](NC(=O)CNC(=O)[C@H](CCC(=O)O)NC(=O)C(C)(C)NC(=O)[C@@H](N)Cc1ccc(O)cc1)[C@@H](C)O)[C@@H](C)CC)[C@@H](C)CC)C(=O)N[C@@H](Cc1c[nH]cn1)C(=O)N[C@@H](CCC(N)=O)C(=O)NC(C)(C)C(=O)N[C@@H](CCC(=O)O)C(=O)N[C@@H](Cc1ccccc1)C(=O)N[C@H](C(=O)N[C@@H](CCC(=O)O)C(=O)N[C@@H](Cc1c[nH]c2ccccc12)C(=O)N[C@@H](CC(C)C)C(=O)N[C@@H](CC(C)C)C(=O)N[C@@H](C)C(=O)N[C@@H](CCC(N)=O)C(=O)N[C@@H](CCCNC(=N)N)C(=O)NCC(N)=O)[C@@H](C)CC [SEQ ID NO: 8, H2N-Y-Aib-E-G-T-F-I-S-D-L-S-I-Aib-K[{N-MeGly}3-gGlu-C18OH]-D-R-I-H-Q-Aib-E-F-I-E-W-L-L-A-Q-R-G-NH2]	139	0.1	0.00745	> 10700	1800 (≈ 423 µM)	0.7	128	> 10						
B1									0.00019	0.00836	> 10	2.8	120	146
B2									0.00015	0.0152	> 10	5.3	119	287
B3									0.00029	0.032	> 10	0.6	116	465
